Where a chain is given by its changes, count along the chain named.
How the values were obtained:
Experiment in all cases: SPR, KD relative to WT C2;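 note: biacore SPR at 37 °C, anti-C2 mAbs captured on anti-human IgG chips with alanine or serine point mutants of C2 as analyte, KD from 1:1 fit compared with wild-type C2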
human C2 G466A = molecular target: T1, human C2 G466A (human, UniProt P06681 21-752)
T1 sequence: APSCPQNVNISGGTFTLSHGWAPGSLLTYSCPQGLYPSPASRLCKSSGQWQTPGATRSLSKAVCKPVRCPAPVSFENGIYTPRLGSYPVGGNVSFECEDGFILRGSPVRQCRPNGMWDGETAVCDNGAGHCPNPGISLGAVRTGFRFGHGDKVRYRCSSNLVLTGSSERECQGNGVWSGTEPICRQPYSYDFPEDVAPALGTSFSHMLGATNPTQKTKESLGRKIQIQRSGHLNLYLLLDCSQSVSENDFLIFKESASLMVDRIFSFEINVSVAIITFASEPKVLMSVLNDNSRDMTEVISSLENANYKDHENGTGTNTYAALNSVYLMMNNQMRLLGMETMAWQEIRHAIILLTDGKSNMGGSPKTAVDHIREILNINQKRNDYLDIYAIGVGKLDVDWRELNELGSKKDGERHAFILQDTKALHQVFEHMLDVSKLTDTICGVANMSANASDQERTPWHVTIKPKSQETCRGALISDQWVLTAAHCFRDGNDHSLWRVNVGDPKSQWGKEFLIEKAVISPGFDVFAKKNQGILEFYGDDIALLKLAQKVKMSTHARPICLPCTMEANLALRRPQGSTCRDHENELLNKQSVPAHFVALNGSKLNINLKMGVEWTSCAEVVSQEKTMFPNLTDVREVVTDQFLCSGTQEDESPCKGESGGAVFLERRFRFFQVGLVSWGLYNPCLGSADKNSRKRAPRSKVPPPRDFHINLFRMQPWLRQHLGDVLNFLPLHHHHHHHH

human C2 N325A = molecular target: T2, human C2 N325A (human, UniProt P06681 21-752)
T2 sequence: T1 sequence with N305A, A446G

human C2 I320A = molecular target: T3, human C2 I320A (human, UniProt P06681 21-752)
T3 sequence: T1 sequence with I300A, A446G

human C2 W420A = molecular target: T4, human C2 W420A (human, UniProt P06681 21-752)
T4 sequence: T1 sequence with W400A, A446G

B1: RF16-242 (antibody, human IgG4 S228P, lambda, V domains shown)
VH: EVQLLQSGAEVKKPGESLKISCKGSGYSFTSYWIGWVRQMPGKGLEWMGIIYPGDSDTRYSPSFQGQVTISADKSISTAYLQWSSLKASDTAMYYCARRGHYGDYFDYWGQGTLVTVSS
VL: SYELTQPPSVSVSPGQTARITCSGDALPKKYAYWYHQKSGQAPVLVIYEDRRRPSEIPERFSGSSSGTMATLTITGAQVEDEGVYFCYSRDRAGNQRVFGGGTQLTVLG
notes: pH-dependent anti-C2 antibody from a phage display library
- Fold diff (human C2 G466A): 4 fold
- Fold diff (human C2 N325A): 6 fold
- Fold diff (human C2 I320A): 10 fold
- Fold diff (human C2 W420A): 2 fold

Reference: patent US20220332804A1 (CSL INNOVATION, published 2022)
